From patent US20190022237

Columns and labels:
[1] = molecular target: T1, Permanent Lys26 CNP-38 PEG4x10 kDa conjugate 12g (not fully specified)
T1 chain: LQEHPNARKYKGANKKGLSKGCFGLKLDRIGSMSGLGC

[2] = molecular target: T2, Permanent N-terminal CNP-34 PEG 5 kDa conjugate 14e (not fully specified)
T2 chain: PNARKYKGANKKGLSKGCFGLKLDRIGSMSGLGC

[3] = molecular target: T3, Permanent N-terminal CNP-38 PEG 5 kDa conjugate 15e (not fully specified)
T3 chain: T1 chain

Measured: half life norm. [h] (in vitro NEP digest)

B1: recombinant human Neutral Endopeptidase (NEP) (protein)
chain: YDDGICKSSDCIKSAARLIQNMDATTEPCTDFFKYACGGWLKRNVIPETSSRYGNFDILRDELEVVLKDVLQEPKTEDIVAVQKAKALYRSCINESAIDSRGGEPLLKLLPDIYGWPVATENWEQKYGASWTAEKAIAQLNSKYGKKVLINLFVGTDDKNSVNHVIHIDQPRLGLPSRDYYECTGIYKEACTAYVDFMISVARLIRQEERLPIDENQLALEMNKVMELEKEIANATAKPEDRNDPMLLYNKMTLAQIQNNFSLEINGKPFSWLNFTNEIMSTVNISITNEEDVVVYAPEYLTKLKPILTKYSARDLQNLMSWRFIMDLVSSLSRTYKESRNAFRKALYGTTSETATWRRCANYVNGNMENAVGRLYVEAAFAGESKHVVEDLIAQIREVFIQTLDDLTWMDAETKKRAEEKALAIKERIGYPDDIVSNDNKLNNEYLELNYKEDEYFENIIQNLKFSQSKQLKKLREKVDKDEWISGAAVVNAFYSSGRNQIVFPAGILQPPFFSAQQSNSLNYGGIGMVIGHEITHGFDDNGRNFNKDGDLVDWWTQQSASNFKEQSQCMVYQYGNFSWDLAGGQHLNGINTLGENIADNGGLGQAYRAYQNYIKKNGEEKLLPGLDLNHKQLFFLNFAQVWCGTYRPEYAVNSIKTDVHSPGNFRIIGTLQNSAEFSEAFHCRKNSYMNPEKKCRVW
Almost no proteolysis after 4 days.: [1] | [2] | [3]
